Data reported in patent US5700659.

B1: polypeptide possessing protein disulfide isomerase (PDI) activity from Humicola insolens KASI (FERM BP-4239), purified from fungal cells (Example 2) (enzyme)
chain: SDVVQLKKDTFDDFIKTNDLVLAEFFAPWCGHCKALAPEYEEAATTLKEKNIKLAKVDCTEETDLCQQHGVEGYPTLKVFRGLDNVSPYKGQRKAAAITSYMIKQSLPAVSEVTKDNLEEFKKADKAVLVAYVDASDKASSEVFTQVAEKLRDNYPFGSSSDAALAEAEGVKAPAIVLYKDFDEGKAVFSEKFEVEAIEKFAKTGATPLIGEIGPETYSDYMSAGIPLAYIFAETAEERKELSDKLKPIAEAQRGVINFGTIDAKAFGAHAGNLNLKTDKFPAFAIQEVAKNQKFPFDQEKEITFEAIKAFVDDFVAGKIEPSIKSEPIPEKQEGPVTVVVAKNYNEIVLDDTKDVLIEFYAPWCGHCKALAPKYEELGALYAKSEFKDRVVIAKVDATANDVPDEIQGFPTIKLYPAGAKGQPVTYSGSRTVEDLIKFIAENGKYKAAISEDAEETSSATETTTETATKSEEAAKETATEHDEL
B2: recombinant polypeptide possessing PDI activity from E. coli JM105/pTrc99APDI (Example 8) (enzyme)
chain: B1 chain

Columns and labels:
[1] = target: scrambled ribonuclease A from bovine pancreas (bovine) (UniProt P61823)
Chain of UniProt P61823 (P61823 27-150 limits assumed): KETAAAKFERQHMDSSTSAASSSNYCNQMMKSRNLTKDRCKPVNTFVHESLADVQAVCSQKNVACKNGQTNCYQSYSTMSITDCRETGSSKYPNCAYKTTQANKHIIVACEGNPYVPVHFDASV

[2] = target: scrambled egg lysozyme (Gallus gallus (Chicken)) (UniProt P00698)

| Binder | Refolding Ratio of Sc-RNase (%) [1] [%] | reactivation of Sc-lysozyme (lysozyme activity on ethylene glycol chitin, absorbance at 420 nm) [2] [%] |
| --- | --- | --- |
| B1 | 80 | 12 |
| B2 | 82 |  |
